Test results from PMC3040262 (Biochemistry, 2011).

Molecular target: PP1α_(7-330), His6-tag removed by TEV protease (UniProt P62136 7-330)
Assay: SEC

PP1α_(7-330), His6-tag removed by TEV protease, sequence (P62136 7-330): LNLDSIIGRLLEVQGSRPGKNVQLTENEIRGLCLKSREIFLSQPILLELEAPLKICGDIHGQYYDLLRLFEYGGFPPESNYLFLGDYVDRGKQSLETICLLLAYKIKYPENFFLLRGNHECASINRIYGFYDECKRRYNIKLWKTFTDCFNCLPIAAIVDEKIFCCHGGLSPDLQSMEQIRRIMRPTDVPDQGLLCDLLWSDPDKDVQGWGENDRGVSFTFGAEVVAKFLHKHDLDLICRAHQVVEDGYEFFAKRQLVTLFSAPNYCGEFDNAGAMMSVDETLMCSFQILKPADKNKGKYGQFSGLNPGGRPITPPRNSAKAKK

stoichiometry N: 1
B1: spinophilin_(417-583) (domain or fragment)
chain: not shown
